Consider one molecule from patent publication US20200123237A1.

The experiment deals with IgG1-S4497 (human). The experiment is described as follows: cell-based or functional assay.

B1: IgG1-S4497 (antibody, not shown: a dimerising Fc or GST)
heavy: EVQLVESGGGLVQPGGSLRLSCSASGFSFNSFWMHWVRQVPGKGLVWISFTNNEGTTTAYADSVRGRFIISRDNAKNTLYLEMNNLRGEDTAVYYCARGDGGLDDWGQGTLVTVSS
light: DIQLTQSPDSLAVSLGERATINCKSSQSIFRTSRNKNLLNWYQQRPGQPPRLLIHWASTRKSGVPDRFSGSGFGTDFTLTITSLQAEDVAIYYCQQYFSPPYTFGQGTKLEIK
B1 returned an EC50 of C3b deposition on Wood 46, purified classical pathway system of 0.668 µg/mL; an EC50 of C4b deposition on Wood 46, purified classical pathway system of 0.886 µg/mL; an EC50 of neutrophil-mediated phagocytic uptake of Wood 46, NHS devoid of IgG and IgM of 0.144 µg/mL; an EC50 of neutrophil-mediated phagocytic uptake of Wood 46, intact NHS of 0.096 µg/mL.
